Laboratory results reported in patent US20060099689A1.

Tests used:
Experiment in all cases: cell-based or functional assay
[1] = target: H-GST-DEVD/X-mLIF with X = E (murine) (UniProt P09056)
[2] = target: H-GST-DEVD/X-mLIF with X = proline (P) (murine) (UniProt P09056)
[3] = target: H-GST-DEVD/X-mLIF with X = D (murine) (UniProt P09056)

inhibition of processing [1]: 25% | inhibition of processing [2]: 75% | inhibition of processing [3]: 25%
Substance: murine Caspase-3 (from UniProt P70677 29-175; P70677 176-277) (enzyme)
